Data from IntAct's records for PubMed 16511572.

B1: Protein Mdm4 (Homo sapiens), O15151 (parent)
chain: MTSFSTSAQCSTSDSACRISPGQINQVRPKLPLLKILHAAGAQGEMFTVKEVMHYLGQYIMVKQLYDQQEQHMVYCGGDLLGELLGRQSFSVKDPSPLYDMLRKNLVTLATATTDAAQTLALAQDHSMDIPSQDQLKQSAEESSTSRKRTTEDDIPTLPTSEHKCIHSREDEDLIENLAQDETSRLDLGFEEWDVAGLPWWFLGNLRSNYTPRSNGSTDLQTNQDVGTAIVSDTTDDLWFLNESVSEQLGVGIKVEAADTEQTSEEVGKVSDKKVIEVGKNDDLEDSKSLSDDTDVEVTSEDEWQCTECKKFNSPSKRYCFRCWALRKDWYSDCSKLTHSLSTSDITAIPEKENEGNDVPDCRRTISAPVVRPKDAYIKKENSKLFDPCNSVEFLDLAHSSESQETISSMGEQLDNLSEQRTDTENMEDCQNLLKPCSLCEKRPRDGNIIHGRTGHLVTCFHCARRLKKAGASCPICKKEIQLVIKVFIA
partner: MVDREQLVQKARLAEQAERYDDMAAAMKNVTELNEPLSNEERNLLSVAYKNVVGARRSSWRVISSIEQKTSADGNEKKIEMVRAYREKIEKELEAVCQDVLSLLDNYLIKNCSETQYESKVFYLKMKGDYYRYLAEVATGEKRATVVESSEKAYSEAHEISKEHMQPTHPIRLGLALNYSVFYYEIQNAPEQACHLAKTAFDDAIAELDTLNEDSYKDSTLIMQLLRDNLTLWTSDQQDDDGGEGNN
B2: 14-3-3 protein gamma (Homo sapiens), P61981 (parent)
chain: B1 partner
partner: B1 chain

Variants of: B1
Details: with 1433g_human YWHAG

| Variant | effect of a mutation on the interaction |
| --- | --- |
| MTSFSTSAQCSTSDSACRISPGQINQVRPKLPLLKILHAAGAQGEMFTVKEVMHYLGQYIMVKQLYDQQEQHMVYCGGDLLGELLGRQSFSVKDPSPLYDMLRKNLVTLATATTDAAQTLALAQDHSMDIPSQDQLKQSAEESSTSRKRTTEDDIPTLPTSEHKCIHSREDEDLIENLAQDETSRLDLGFEEWDVAGLPWWFLGNLRSNYTPRSNGSTDLQTNQDVGTAIVSDTTDDLWFLNESVSEQLGVGIKVEAADTEQTSEEVGKVSDKKVIEVGKNDDLEDSKSLSDDTDVEVTSEDEWQCTECKKFNSPSKRYCFRCWALRKDWYSDCSKLTHSLSTSDITAIPEKENEGNDVPDCRRTIGAPVVRPKDAYIKKENSKLFDPCNSVEFLDLAHSSESQETISSMGEQLDNLSEQRTDTENMEDCQNLLKPCSLCEKRPRDGNIIHGRTGHLVTCFHCARRLKKAGASCPICKKEIQLVIKVFIA [S367G] | disrupting interaction |
| P369G | disrupting interaction |

Variants of: B2
Details: with mdm4_human MDM4, O15151

| Variant | effect of a mutation on the interaction |
| --- | --- |
| MVDREQLVQKARLAEQAERYDDMAAAMKNVTELNEPLSNEERNLLSVAYENVVGARRSSWRVISSIEQKTSADGNEKKIEMVRAYREKIEKELEAVCQDVLSLLDNYLIKNCSETQYESKVFYLKMKGDYYRYLAEVATGEKRATVVESSEKAYSEAHEISKEHMQPTHPIRLGLALNYSVFYYEIQNAPEQACHLAKTAFDDAIAELDTLNEDSYKDSTLIMQLLRDNLTLWTSDQQDDDGGEGNN [K50E] | disrupting interaction |
